Substitutions are numbered along the chain they refer to.
B1: CueO-PM2 (designed binder)
chain: AERPTLPIPDLLTTDARNRIQLTIGAGQSTFGGKTATTWGYNGNLLGPAVKLQRGKAVTVDIYNQLTEETTLHWHGLEVPGEVDGGPQGIIPPGGKRSVTLNVDQPAATCWFHPHQHGKTGRQVAMGLAGLVVIEDDEILKLMLPKQWGIDDVPVIVQDKKFSADGQIDYQLDVMTAAVGWFGDTLLTNGAIYPQHAAPRGWLRLRLLNGCNARSLNFATSDNRPLYVIASDGGLLPEPVKVSELPVLMGERFEVLVEVNDNKPFDLVTLPVSQMGMAIAPFDKPHPVMRIQPIAISASGALPDTLSSLPALPSLEGLTVRKLQLSMDPILDMMGMQMLMEKYGDQAMAGMDHSQMTSFAEYWALLSMNHGGKFDFHHANKINGQAFDMNKPMFAAAKGQYERWVISGVGDMMLHPFHIHGTQFRILSENGKPPAAHRAGWKDTVKVEGNVSEVLVKFNHDAPKEHAYMAHCHLLEHEDTGMMLGFTV
B2: MDM2(6–125) (domain or fragment, UniProt Q00987 6-125, looked up)
chain: MSVPTDGAVTTSQIPASEQETLVRPKPLLLKLLKSVGAQKDTYTMKEVLFYLGQYIMTKRLYDEKQQHIVYCSNDLLGDLFGVPSFSVKEHRKIYTMIYRNLVVVNQQESSDSGTSVSEN

Legend:
[1] = biological target: B2; experiment: cell-based or functional assay
[2] = biological target: T1, CueO (M358I) (E. coli, UniProt P36649 29-516, M358I); experiment: fluorescence polarisation; competitive fluorescence anisotropy; CueO proteins titrated against 150 nM MDM2(6–125) and 50 nM FITC-labeled 12.1 peptide; PBS, 3% DMSO, 0.1% Tween 20; apparent Kd; conditions: both partners purified
T1 construct: signal peptide in the construct (primer 1 begins at the precursor's ATG); E. coli multi-copper oxidase CueO, gene amplified from JM109 genomic DNA with primers 1 and 2; The M358I mutation arose during cloning and is present in all variants; The signal peptide may be cut in E. coli (surmise; the solved variants are modelled from residue 29 or 30); source: E. coli BL21(DE3), purified (HisTrap)
T1 sequence (looked up): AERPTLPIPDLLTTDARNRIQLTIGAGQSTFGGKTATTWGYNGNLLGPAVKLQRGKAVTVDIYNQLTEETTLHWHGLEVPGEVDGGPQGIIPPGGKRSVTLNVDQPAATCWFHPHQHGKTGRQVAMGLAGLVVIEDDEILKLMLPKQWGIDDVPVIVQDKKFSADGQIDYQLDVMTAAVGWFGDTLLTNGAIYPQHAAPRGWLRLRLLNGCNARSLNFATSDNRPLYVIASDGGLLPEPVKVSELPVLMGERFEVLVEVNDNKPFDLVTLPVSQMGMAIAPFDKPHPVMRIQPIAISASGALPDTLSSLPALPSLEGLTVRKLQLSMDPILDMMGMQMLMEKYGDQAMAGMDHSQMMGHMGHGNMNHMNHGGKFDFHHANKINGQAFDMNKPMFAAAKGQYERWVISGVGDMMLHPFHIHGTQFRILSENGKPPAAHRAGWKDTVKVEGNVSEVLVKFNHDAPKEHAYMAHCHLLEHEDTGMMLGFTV

[3] = biological target: T2, CueO-12.1 (E. coli, UniProt P36649 29-516, M358I | 12.1 peptide replaced residues 384–394 (translated from primers 9 and …)); experiment: as above; conditions: both partners purified
T2 construct: signal peptide in the construct; source: E. coli BL21(DE3), purified (HisTrap)
T2 sequence (looked up): B1 chain with T357P, S358R, A360M, E361D, A364E, L365G, S367N

[4] = biological target: T3, CueO-PMI (E. coli, UniProt P36649 29-516, M358I | PMI peptide insert (translated from primers 13 and 14, Table 3: 385-395 …)); experiment: as above; conditions: both partners purified
T3 construct: signal peptide in the construct; source: E. coli BL21(DE3), purified (HisTrap)
T3 sequence (looked up): B1 chain with A364N

[5] = biological target: B1; experiment: as above; conditions: both partners purified

Row | Binder | kcat of syringaldazine oxidation by CueO-PM2 preincubated with 10 μM MDM2, against CueO-PM2 alone [1] | Kd [2] | Kd [3] | Kd [4] | Kd [5]
1 | B1 | ~1.6 fold | – | – | – | –
2 | B2 | – | 44300 nM | 722 nM | 28 nM | 25 nM

From PMC6497955, “Development and structural characterization of an engineered multi-copper oxidase reporter of protein–protein interactions” (The Journal of Biological Chemistry, 2019)
